# Experimental data as given in the FLAb antibody collection.
# Assay: patients with anti-drug antibodies; higher = more immunogenic
row,Protein,patients with anti-drug antibodies
1,unnamed (protein) chain 1: QVQLVQSGAEVKKPGASVKVSCKASGYTFTSYDINWVRQATGQGLEWMGWMNPNSGNTGYAQKFQGRVTMTRNTSISTAYMELSSLRSEDTAVYYCARDPYYYYYGMDVWGQGTTVTVSS chain 2: QSVLTQPPSVSAAPGQKVTISCSGSSSNIENNHVSWYQQLPGTAPKLLIYDNNKRPSGIPDRFSGSKSGTSATLGITGLQTGDEADYYCETWDTSLSAGRVFGGGTKLTVL,0%
2,unnamed (protein) chain 1: EVQLLQSGPELEKPGASVMISCKASGSSFTGYNMNWVRQNIGKSLEWIGAIDPYYGGTSYNQKFKGRATLTVDKSSSTAYMHLKSLTSEDSAVYYCVSGMEYWGQGTSVTVSS chain 2: EIVMTQSPATLSVSPGERATLSCRSSQSLVHRNGNTYLHWYLQKPGQSPKLLIHKVSNRFSGVPDRFSGSGSGTDFTLKISRVEAEDLGVYFCSQSTHVPPLTFGAGTKLELK,17%
3,unnamed (protein) chain 1: QVQLVQSGSELKKPGASVKVSCKASGYTFTDNNMDWVRQAPGQGLEWMGDINTRSGGSIYNEEFQDRVIMTVDKSTDTAYMELSSLRSEDTATYHCARRKSYGYYLDEWGEGTLVTVSS chain 2: DIQMTQSPSSLSASVGDRVTITCKASRNIERQLAWYQQKPGQAPELLIYQASRKESGVPDRFSGSRYGTDFTLTISSLQPEDIATYYCQQYSDPPLTFGGGTKVEIK,3.5%
4,unnamed (protein) chain 1: EVQLVESGGGLVQPGGSLRLSCAASGYSFTGHWMNWVRQAPGKGLEWVGMIHPSDSETRYNQKFKDRFTISVDKSKNTLYLQMNSLRAEDTAVYYCARGIYFYGTTYFDYWGQGTLVTVSS chain 2: DIQMTQSPSSLSASVGDRVTITCRASKTISKYLAWYQQKPGKAPKLLIYSGSTLQSGVPSRFSGSGSGTDFTLTISSLQPEDFATYYCQQHNEYPLTFGQGTKVEIK,6.3%
5,unnamed (protein) chain 1: QVQLVESGGGVVQPGRSLRLSCAASGFSFSNYGMHWVRQAPGKGLEWVALIWYDGSNEDYTDSVKGRFTISRDNSKNTLYLQMNSLRAEDTAVYYCARWGMVRGVIDVFDIWGQGTVVTVSS chain 2: DIQMTQSPSSVSASVGDRVTITCRASQGISSWLAWYQHKPGKAPKLLIYAASSLQSGVPSRFSGSGSGTDFTLTISSLQPEDFATYYCQQANSFPWTFGQGTKVEIK,0%
6,unnamed (protein) chain 1: EVQLVESGGGLVQPGGSLRLSCAASGFTFSSYNMNWVRQAPGKGLEWVSYISSSSSTIYYADSVKGRFTISRDNAKNSLSLQMNSLRDEDTAVYYCARAYYYGMDVWGQGTTVTVSS chain 2: DIQMTQSPSSVSASVGDRVTITCRASQGISGWLAWYQQKPGKAPKFLIYAASTLQSGVPSRFSGSGSGTDFTLTISSLQPEDFATYYCQQANSFPPTFGGGTKVEIK,1%
7,unnamed (protein) chain 1: EVQLVQSGAEVKKPGATVKISCKVSGYTFTDYYIHWVQQAPGKGLEWMGRVNPDHGDSYYNQKFKDKATITADKSTDTAYMELSSLRSEDTAVYFCARNYLFDHWGQGTLVTVSS chain 2: DIQMTQSPSSVSASVGDRVTITCKASQDVGTAVAWYQQKPGKAPKLLIYWASIRHTGVPSRFSGSGSGTDFTLTISSLQPEDFATYYCHQFATYTFGGGTKVEIK,58.6%
8,unnamed (protein) chain 1: QVQLVQSGAEVKKPGASVKVSCKASGYIFSNYWIQWVRQAPGQGLEWMGEILPGSGSTEYTENFKDRVTMTRDTSTSTVYMELSSLRSEDTAVYYCARYFFGSSPNWYFDVWGQGTLVTVSS chain 2: DIQMTQSPSSLSASVGDRVTITCGASENIYGALNWYQQKPGKAPKLLIYGATNLADGVPSRFSGSGSGTDFTLTISSLQPEDFATYYCQNVLNTPLTFGQGTKVEIK,2%
9,unnamed (protein) chain 1: QVQLKESGPGLVAPSQSLSITCTVSGFSLTDYGVRWIRQPPGKGLEWLGVIWGGGSTYYNSALKSRLSISKDNSKSQVFLKMNSLQTDDTAMYYCAKEKRRGYYYAMDYWGQGTSVTVSS chain 2: ENVLTQSPAIMSASPGEKVTMTCRASSSVSSSYLHWYQQKSGASPKLWIYSTSNLASGVPARFSGSGSGTSYSLTISSVEAEDAATYYCQQYSGYPLTFGGGTKLEIK,33.3%
10,unnamed (protein) chain 1: EVQLVESGGGLEQPGGSLRLSCAGSGFTFRDYAMTWVRQAPGKGLEWVSSISGSGGNTYYADSVKGRFTISRDNSKNTLYLQMNSLRAEDTAVYYCAKDRLSITIRPRYYGLDVWGQGTTVTVSS chain 2: DIVMTQSPLSLPVTPGEPASISCRSSQSLLYSIGYNYLDWYLQKSGQSPQLLIYLGSNRASGVPDRFSGSGSGTDFTLKISRVEAEDVGFYYCMQALQTPYTFGQGTKLEIK,4%
11,unnamed (protein) chain 1: QVQLQESGPGLVKPSQTLSLTCTVSGYSISSDFAWNWIRQPPGKGLEWMGYISYSGNTRYQPSLKSRITISRDTSKNQFFLKLNSVTAADTATYYCVTAGRGFPYWGQGTLVTVSS chain 2: DIQMTQSPSSMSVSVGDRVTITCHSSQDINSNIGWLQQKPGKSFKGLIYHGTNLDDGVPSRFSGSGSGTDYTLTISSLQPEDFATYYCVQYAQFPWTFGGGTKLEIK,5%
12,unnamed (protein) chain 1: EVQLLESGGGLVQPGGSLRLSCAVSGFTFNSFAMSWVRQAPGKGLEWVSAISGSGGGTYYADSVKGRFTISRDNSKNTLYLQMNSLRAEDTAVYFCAKDKILWFGEPVFDYWGQGTLVTVSS chain 2: not shown,0%
13,unnamed (protein) chain 1: EVQLVESGGGLVQPGGSLRLSCAVSGFSSTNYHVHWVRQAPGKGLEWMGVIWGDGDTSYNSVLKSRFTISRDTSKNTVYLQMNSLRAEDTAVYYCARQLTHYYVLAAWGQGTLVTVSS chain 2: DIQMTQSPSSLSASVGDRVTITCRASEDLYYNLAWYQRKPGKAPKLLIYDTYRLADGVPSRFSGSGSGTDYTLTISSLQPEDFASYYCQQYYKFPFTFGQGTKVEIK,8.9%
14,unnamed (protein) chain 1: EVQLLESGGGLVQPGGSLRLSCAASGFTFSSYAMSWVRQAPGKGLEWVSTISSGGSYTSYPDSVKGRFTISRDNSKNTLYLQMNSLRAEDTAVYYCAKQDYAMNYWGQGTLVTVSS chain 2: DIQMTQSPSSLSASVGDRVTITCKASQDVSTAVAWYQQKPGKAPKLLIYSASYRYTGVPSRFSGSGSGTDFTLTISSLQPEDFATYYCQQHYSTPWTFGGGTKVEIK,9.4%
15,unnamed (protein) chain 1: EVQLLESGGGLVQPGGSLRLSCAASGFTFSSYAMSWVRQAPGKGLEWVSGITGSGGSTYYADSVKGRFTISRDNSKNTLYLQMNSLRAEDTAVYYCAKDPGTTVIMSWFDPWGQGTLVTVSS chain 2: EIVLTQSPGTLSLSPGERATLSCRASQSVRGRYLAWYQQKPGQAPRLLIYGASSRATGIPDRFSGSGSGTDFTLTISRLEPEDFAVFYCQQYGSSPRTFGQGTKVEIK,1%
16,unnamed (protein) chain 1: EVQLVESGGGLVQPGGSLRLSCAASGFTFSRYWMSWVRQAPGKGLEWVANIKQDGSEKYYVDSVKGRFTISRDNAKNSLYLQMNSLRAEDTAVYYCAREGGWFGELAFDYWGQGTLVTVSS chain 2: EIVLTQSPGTLSLSPGERATLSCRASQRVSSSYLAWYQQKPGQAPRLLIYDASSRATGIPDRFSGSGSGTDFTLTISRLEPEDFAVYYCQQYGSLPWTFGQGTKVEIK,3.3%
17,unnamed (protein) chain 1: QVQLVQSGAEVKKPGSSVKVSCKASGGTFSYYWIEWVRQAPGQGLEWMGEILPGSGTTNPNEKFKGRVTITADESTSTAYMELSSLRSEDTAVYYCARADYYGSDYVKFDYWGQGTLVTVSS chain 2: DIQMTQSPSSLSASVGDRVTITCKASQHVITHVTWYQQKPGKAPKLLIYGTSYSYSGVPSRFSGSGSGTDFTLTISSLQPEDFATYYCQQFYEYPLTFGGGTKVEIK,9%
18,unnamed (protein) chain 1: QVQLQQSGAELVRPGTSVKVSCKASGYAFTNYLIEWVKQRPGQGLEWIGVINPGSGGTNYNEKFKGKATLTADKSSSTAYMQLSSLTSDDSAVYFCARDGPWFAYWGQGTLVTVSA chain 2: NIVMTQSPKSMSMSVGERVTLTCKASENVVTYVSWYQQKPEQSPKLLIYGASNRYTGVPDRFTGSGSATDFTLTISSVQAEDLADYHCGQGYSYPYTFGGGTKLEIK,80%
19,unnamed (protein) chain 1: QVQLVQSGAEVKKPGASVKVSCKASGYTFTDYYMHWVRQAPGQGLEWMGRVNPNRRGTTYNQKFEGRVTMTTDTSTSTAYMELRSLRSDDTAVYYCARANWLDYWGQGTTVTVSS chain 2: DIQMTQSPSSLSASVGDRVTITCSVSSSVSSIYLHWYQQKPGKAPKLLIYSTSNLASGVPSRFSGSGSGTDFTLTISSLQPEDFATYYCQVYSGYPLTFGGGTKVEIK,0%
20,unnamed (protein) chain 1: EVQLVESGGGLVQPGGSLRLSCAASGFDFSRYWMSWVRQAPGKGLEWIGEINPDSSTINYAPSLKDKFIISRDNAKNSLYLQMNSLRAEDTAVYYCARPDGNYWYFDVWGQGTLVTVSS chain 2: DIQMTQSPSSLSASVGDRVTITCKASQDVGIAVAWYQQKPGKVPKLLIYWASTRHTGVPDRFSGSGSGTDFTLTISSLQPEDVATYYCQQYSSYPYTFGQGTKVEIK,18.5%
